The text below walks through data of US20140356358A1 (Amgen, published 2014).

Assay [1] addresses T1, human neonatal Fc receptor (hFcRn) (human, UniProt P55899 24-290; P61769 21-119).
T1 construct: Biotinylated in the ELISA, Octet and yeast assays; also called human FcRn; huFcRn
Briefly: phage ELISA pH 7.4. As to the method: (§1) Approximately 100 μL of biotinylated human FcRn at 2 μg/mL was added to the wells of MAXISORP™ plates coated with 10 μg/mL streptavidin. After washing with PBS plus 0.05% Tween 20 (PBST) five times, phage from the overnight cultures in MES buffer at pH 6.0 or pH 7.4 were added to the plates and incubated at room temperature for 1 hr. A horseradish peroxidase (HRP)-conjugated anti-M13 antibody was used to detect the binding phage, and the plates were scored by a microtiter plate reader using a wavelength in the visible range.
(§2) Binding was assessed by a quantitative enzyme-linked immunoadsorbent assay (ELISA). The ELISA scores reflect binding affinity, with higher scores meaning higher affinity. Typically, scores higher than about 3˜5 indicate binding above background. For library L5, the insertions are between the N169 and G170 according to the numbering in FIG. 2. For libraries 6A and 6B, the insertions are between L143 and T144 according to the numbering in FIG. 2.

Assay [2] concerns the target T1, human neonatal Fc receptor (hFcRn). Put plainly: phage ELISA pH 6. As to the method: as §1, §2
For orientation: An ELISA detects its analyte on a solid surface through an enzyme-linked reagent.
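Further: higher score means stronger binding and above about 3 to 5 exceeds background.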

T1 sequence (P55899 24-290 limits assumed, chain 1 of 2): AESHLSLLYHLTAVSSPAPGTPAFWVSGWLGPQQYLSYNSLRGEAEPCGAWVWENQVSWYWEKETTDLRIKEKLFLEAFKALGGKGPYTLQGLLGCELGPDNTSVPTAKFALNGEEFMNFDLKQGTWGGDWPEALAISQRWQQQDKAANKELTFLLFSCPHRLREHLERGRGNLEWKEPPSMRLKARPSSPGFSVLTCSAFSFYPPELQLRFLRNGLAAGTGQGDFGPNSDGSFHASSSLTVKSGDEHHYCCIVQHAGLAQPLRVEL
T1 sequence (P61769 21-119 limits assumed, chain 2 of 2): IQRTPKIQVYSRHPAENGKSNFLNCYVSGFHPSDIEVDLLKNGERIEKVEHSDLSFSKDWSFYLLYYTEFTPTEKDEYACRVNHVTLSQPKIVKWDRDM

B1: L6B isolate with insertion SEQ ID NO: 455 (other)
chain: EPKSCDKTHTCPPCPAPELLGGPSVFLFPPKPKDTLMISRTPEVTCVVVDVSHEDPEVKFNWYVDGVEVHNAKTKPREEQYNSTYRVVSVLTVLHQDWLNGKEYKCKVSNKALPAPIEKTISKAKGQPREPQVYTLPPSRDELGGCVSAATSRTCGGTKNQVSLTCLVKGFYPSDIAVEWESNGQPENNYKTTPPVLDSDGSFFLYSKLTVDKSRWQQGNVFSCSVMHEALHNHYTQKSLSLSPGK
In turn, B1 returned an ELISA score in assay [1] of 0.3.

B2: L5 isolate with insertion SEQ ID NO: 392 (other)
chain: EPKSCDKTHTCPPCPAPELLGGPSVFLFPPKPKDTLMISRTPEVTCVVVDVSHEDPEVKFNWYVDGVEVHNAKTKPREEQYNSTYRVVSVLTVLHQDWLNGKEYKCKVSNKALPAPIEKTISKAKGQPREPQVYTLPPSRDELTKNQVSLTCLVKGFYPSDIAVEWESNGGCPHMFPWCGGGQPENNYKTTPPVLDSDGSFFLYSKLTVDKSRWQQGNVFSCSVMHEALHNHYTQKSLSLSPGK
B2: the ELISA score worked out at 95.1 in assay [2] and 15.1 in assay [1].

B3: L5 isolate with insertion SEQ ID NO: 403 (other)
chain: EPKSCDKTHTCPPCPAPELLGGPSVFLFPPKPKDTLMISRTPEVTCVVVDVSHEDPEVKFNWYVDGVEVHNAKTKPREEQYNSTYRVVSVLTVLHQDWLNGKEYKCKVSNKALPAPIEKTISKAKGQPREPQVYTLPPSRDELTKNQVSLTCLVKGFYPSDIAVEWESNGGCPANWGTCGGGQPENNYKTTPPVLDSDGSFFLYSKLTVDKSRWQQGNVFSCSVMHEALHNHYTQKSLSLSPGK
Consider B3, for which the values for the ELISA score in assay [2] and in assay [1] were 74.8 and 0.5, respectively.

B4: L5 isolate with insertion SEQ ID NO: 437 (other)
chain: EPKSCDKTHTCPPCPAPELLGGPSVFLFPPKPKDTLMISRTPEVTCVVVDVSHEDPEVKFNWYVDGVEVHNAKTKPREEQYNSTYRVVSVLTVLHQDWLNGKEYKCKVSNKALPAPIEKTISKAKGQPREPQVYTLPPSRDELTKNQVSLTCLVKGFYPSDIAVEWESNGGCNVLDLFCGGGQPENNYKTTPPVLDSDGSFFLYSKLTVDKSRWQQGNVFSCSVMHEALHNHYTQKSLSLSPGK
In the case of B4, the ELISA score in assay [1] was determined as 0.3.

B5: L5 isolate with insertion SEQ ID NO: 402 (other)
chain: EPKSCDKTHTCPPCPAPELLGGPSVFLFPPKPKDTLMISRTPEVTCVVVDVSHEDPEVKFNWYVDGVEVHNAKTKPREEQYNSTYRVVSVLTVLHQDWLNGKEYKCKVSNKALPAPIEKTISKAKGQPREPQVYTLPPSRDELTKNQVSLTCLVKGFYPSDIAVEWESNGGCELQERWCGGGQPENNYKTTPPVLDSDGSFFLYSKLTVDKSRWQQGNVFSCSVMHEALHNHYTQKSLSLSPGK
As for B5, the ELISA score in assay [2] stood at 75.5; in assay [1] it was 0.3.

B6: L5 isolate with insertion SEQ ID NO: 396 (other)
chain: EPKSCDKTHTCPPCPAPELLGGPSVFLFPPKPKDTLMISRTPEVTCVVVDVSHEDPEVKFNWYVDGVEVHNAKTKPREEQYNSTYRVVSVLTVLHQDWLNGKEYKCKVSNKALPAPIEKTISKAKGQPREPQVYTLPPSRDELTKNQVSLTCLVKGFYPSDIAVEWESNGGCREPHPFCGGGQPENNYKTTPPVLDSDGSFFLYSKLTVDKSRWQQGNVFSCSVMHEALHNHYTQKSLSLSPGK
In the case of B6, the ELISA score was 88.6 in assay [2] and 8.9 in assay [1].

B7: L5 isolate with insertion SEQ ID NO: 397 (other)
chain: EPKSCDKTHTCPPCPAPELLGGPSVFLFPPKPKDTLMISRTPEVTCVVVDVSHEDPEVKFNWYVDGVEVHNAKTKPREEQYNSTYRVVSVLTVLHQDWLNGKEYKCKVSNKALPAPIEKTISKAKGQPREPQVYTLPPSRDELTKNQVSLTCLVKGFYPSDIAVEWESNGGCPFEFTQCGGGQPENNYKTTPPVLDSDGSFFLYSKLTVDKSRWQQGNVFSCSVMHEALHNHYTQKSLSLSPGK
Regarding B7, the values for the ELISA score in assay [2] and in assay [1] were 87.3 and 1.8, respectively.

B8: L5 isolate with insertion SEQ ID NO: 401 (other)
chain: EPKSCDKTHTCPPCPAPELLGGPSVFLFPPKPKDTLMISRTPEVTCVVVDVSHEDPEVKFNWYVDGVEVHNAKTKPREEQYNSTYRVVSVLTVLHQDWLNGKEYKCKVSNKALPAPIEKTISKAKGQPREPQVYTLPPSRDELTKNQVSLTCLVKGFYPSDIAVEWESNGGCMVPFSMCGGGQPENNYKTTPPVLDSDGSFFLYSKLTVDKSRWQQGNVFSCSVMHEALHNHYTQKSLSLSPGK
B8 returned an ELISA score in assay [1] of 0.6.

B9: L5 isolate with insertion SEQ ID NO: 405 (other)
chain: EPKSCDKTHTCPPCPAPELLGGPSVFLFPPKPKDTLMISRTPEVTCVVVDVSHEDPEVKFNWYVDGVEVHNAKTKPREEQYNSTYRVVSVLTVLHQDWLNGKEYKCKVSNKALPAPIEKTISKAKGQPREPQVYTLPPSRDELTKNQVSLTCLVKGFYPSDIAVEWESNGGCQHHIMQCGGGQPENNYKTTPPVLDSDGSFFLYSKLTVDKSRWQQGNVFSCSVMHEALHNHYTQKSLSLSPGK
As for B9, the results for the ELISA score in assay [2] and in assay [1] were 73.4 and 0.4, respectively.

B10: L5 isolate with insertion SEQ ID NO: 398 (other)
chain: EPKSCDKTHTCPPCPAPELLGGPSVFLFPPKPKDTLMISRTPEVTCVVVDVSHEDPEVKFNWYVDGVEVHNAKTKPREEQYNSTYRVVSVLTVLHQDWLNGKEYKCKVSNKALPAPIEKTISKAKGQPREPQVYTLPPSRDELTKNQVSLTCLVKGFYPSDIAVEWESNGGCQLGSMHCGGGQPENNYKTTPPVLDSDGSFFLYSKLTVDKSRWQQGNVFSCSVMHEALHNHYTQKSLSLSPGK
Turning to B10, the ELISA score in assay [2] amounted to 86.5; in assay [1], 0.4.

B11: L5 isolate with insertion SEQ ID NO: 407 (other)
chain: EPKSCDKTHTCPPCPAPELLGGPSVFLFPPKPKDTLMISRTPEVTCVVVDVSHEDPEVKFNWYVDGVEVHNAKTKPREEQYNSTYRVVSVLTVLHQDWLNGKEYKCKVSNKALPAPIEKTISKAKGQPREPQVYTLPPSRDELTKNQVSLTCLVKGFYPSDIAVEWESNGGCMVPFSMCGGGQPENNYKTTPPVLDSDGSFFLYSKLTVDKSRWQQGNVFSCSVMHEALHNHYTQKSLSLSPGK
Turning to B11, in assay [1], the ELISA score was 0.6.

B12: L5 isolate with insertion SEQ ID NO: 393 (other)
chain: EPKSCDKTHTCPPCPAPELLGGPSVFLFPPKPKDTLMISRTPEVTCVVVDVSHEDPEVKFNWYVDGVEVHNAKTKPREEQYNSTYRVVSVLTVLHQDWLNGKEYKCKVSNKALPAPIEKTISKAKGQPREPQVYTLPPSRDELTKNQVSLTCLVKGFYPSDIAVEWESNGGCGHGWIFCGGGQPENNYKTTPPVLDSDGSFFLYSKLTVDKSRWQQGNVFSCSVMHEALHNHYTQKSLSLSPGK
With B12, the ELISA score in assay [2] was determined as 92.1; in assay [1], 28.4.

B13: L5 isolate with insertion SEQ ID NO: 399 (other)
chain: EPKSCDKTHTCPPCPAPELLGGPSVFLFPPKPKDTLMISRTPEVTCVVVDVSHEDPEVKFNWYVDGVEVHNAKTKPREEQYNSTYRVVSVLTVLHQDWLNGKEYKCKVSNKALPAPIEKTISKAKGQPREPQVYTLPPSRDELTKNQVSLTCLVKGFYPSDIAVEWESNGGCYENKTLCGGGQPENNYKTTPPVLDSDGSFFLYSKLTVDKSRWQQGNVFSCSVMHEALHNHYTQKSLSLSPGK
In the case of B13, the ELISA score in assay [2] turned out to be 86.3; in assay [1], 1.6.

B14: L5 isolate with insertion SEQ ID NO: 406 (other)
chain: EPKSCDKTHTCPPCPAPELLGGPSVFLFPPKPKDTLMISRTPEVTCVVVDVSHEDPEVKFNWYVDGVEVHNAKTKPREEQYNSTYRVVSVLTVLHQDWLNGKEYKCKVSNKALPAPIEKTISKAKGQPREPQVYTLPPSRDELTKNQVSLTCLVKGFYPSDIAVEWESNGGCYQHHMECGGGQPENNYKTTPPVLDSDGSFFLYSKLTVDKSRWQQGNVFSCSVMHEALHNHYTQKSLSLSPGK
With B14, the ELISA score was 73.1 in assay [2] and 0.4 in assay [1].

B15: L5 isolate with insertion SEQ ID NO: 404 (other)
chain: EPKSCDKTHTCPPCPAPELLGGPSVFLFPPKPKDTLMISRTPEVTCVVVDVSHEDPEVKFNWYVDGVEVHNAKTKPREEQYNSTYRVVSVLTVLHQDWLNGKEYKCKVSNKALPAPIEKTISKAKGQPREPQVYTLPPSRDELTKNQVSLTCLVKGFYPSDIAVEWESNGGCMMEFAQCGGGQPENNYKTTPPVLDSDGSFFLYSKLTVDKSRWQQGNVFSCSVMHEALHNHYTQKSLSLSPGK
With B15, the ELISA score came out at 74.2 in assay [2] and 2.3 in assay [1].

B16: L5 isolate with insertion SEQ ID NO: 395 (other)
chain: EPKSCDKTHTCPPCPAPELLGGPSVFLFPPKPKDTLMISRTPEVTCVVVDVSHEDPEVKFNWYVDGVEVHNAKTKPREEQYNSTYRVVSVLTVLHQDWLNGKEYKCKVSNKALPAPIEKTISKAKGQPREPQVYTLPPSRDELTKNQVSLTCLVKGFYPSDIAVEWESNGGCILNFYGCGGGQPENNYKTTPPVLDSDGSFFLYSKLTVDKSRWQQGNVFSCSVMHEALHNHYTQKSLSLSPGK
Regarding B16, the ELISA score is 89.5 in assay [2] and 23.5 in assay [1].

B17: L5 isolate with insertion SEQ ID NO: 442 (other)
chain: EPKSCDKTHTCPPCPAPELLGGPSVFLFPPKPKDTLMISRTPEVTCVVVDVSHEDPEVKFNWYVDGVEVHNAKTKPREEQYNSTYRVVSVLTVLHQDWLNGKEYKCKVSNKALPAPIEKTISKAKGQPREPQVYTLPPSRDELTKNQVSLTCLVKGFYPSDIAVEWESNGGCNVLDLFCGGGQPENNYKTTPPVLDSDGSFFLYSKLTVDKSRWQQGNVFSCSVMHEALHNHYTQKSLSLSPGK
In assay [1], B17 returned an ELISA score of 0.3.
